Usually Kd stands for the constant that tells how readily two partners part at equilibrium. Low values mean tighter binding, high ones weaker binding.

Experiment [1] deals with T1, FoxA (Pseudomonas aeruginosa, UniProt Q9I116).
T1 construct: Full-length FoxA, purified in nonyl glucopyranoside
As to the kind of experiment: tryptophan fluorescence quenching (Kd […]); also ITC in nanodiscs (Kd […]) and co-crystal structures without and with TonBCt. Type of experiment: binding.

In experiment [2] the target is T2, FoxA from Pseudomonas aeruginosa strain PAO1, full-length (Pseudomonas aeruginosa strain PAO1, UniProt Q9I116 1-820, Signal peptide taken as removed in the outer membrane; text gives the mature start as 44 or 45, and 45 is used. His6 tag removed by TEV, residual TEV-site residues at the C-terminus omitted. Ferrioxam). Briefly: ITC; 150 μM TonBCt in the syringe, 15 μM apo FoxA in MSP1D1/POPC nanodiscs in the cell; 20 mM HEPES, 150 mM NaCl, pH 7.5; 26 °C; single-site model; triplicates, SD. To be noted: both partners purified.

Experiment [3] addresses T2, FoxA from Pseudomonas aeruginosa strain …. Briefly: ITC; 150 μM TonBCt in the syringe, 15 μM ferrioxamine B-bound FoxA in MSP1D1/POPC nanodiscs in the cell (dialysed against 1 mM FoaB); 20 mM HEPES, 150 mM NaCl, pH 7.5; 26 °C; single-site model; triplicates, SD. To be noted: both partners purified. For orientation: In ITC the heat of successive injections is recorded.

As for `CC(=O)N([O-])CCCCCNC(=O)CCC(=O)N([O-])CCCCCNC(=O)CCC(=O)N([O-])CCCCCN.[Fe+3]` [FoaB, ferrioxamine B], binding in experiment [1] was put at a Kd of 100 ± 10 nM.

B1: TonBCt, C-terminal domain of TonB1 from Pseudomonas aeruginosa strain PAO1 (residues 251-340) (domain or fragment, UniProt Q51368 251-340, looked up)
chain: DSDIKPLRMDPPVYPRMAQARGIEGRVKVLFTITSDGRIDDIQVLESVPSRMFDREVRQAMAKWRFEPRVSGGKIVARQATKMFFFKIEK
notes: TonB1, Pseudomonas aeruginosa PAO1, residues 251-340 (C-terminal domain); also called TonB fragment; C-terminal TonB domain; source: E. coli BL21 Gold, purified (HisTrap Ni-NTA, TEV, reverse purification)
Take B1: in experiment [2], the Kd was 111 nM and the dH is -10.1 kcal/mol. Moreover, in experiment [3], binding was put at a Kd of 6.6 nM and the dH was -18.1 kcal/mol.

Values taken from PMC6699858, “Ternary structure of the outer membrane transporter FoxA with resolved signalling domain provides insights into TonB-mediated siderophore uptake” (eLife, 2019).
